This data set in a line: yeast display, Sf9 membrane polyspecificity reagent, FACS + sequencing; frameworks hold sequencing errors. In short, it runs like this:
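A nanobody's polyreactivity label depends on the gate it was sorted from. Yeast display cells were stained with 10% biotinylated, detergent-solubilized Sf9 membrane reagent for 1 hour at 4 °C, enriched on streptavidin microbeads and sorted by FACS. The low and high (top ~1%) gates were set on anti-HA fluorescence for expression and streptavidin fluorescence for reagent binding.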
Turning to “QVQLVESRGALVQAGGSLRLSCAASGSTIDAYAMGWYRQAPGKERELVAAITRSGGRTYYADSVKGRFTISRDYAKNTVFLQMNSLKPVDTAVFYCNAYCVYVRGEFWGQGTQVTVSS”, the “polyreactivity (PSR sort gate)” value was “high polyreactivity”.
Next, “QVQLVESRGALVQAGRSLRLRCAASGLIFYLYAMGWYRQAPGKARELVAAINYSGGRTYYADSVKGRFTISRDNAKNTVYLQMNSLKPEDTAVYYCAAKSAGFQYNYWGHGTQVTVSS”: “high polyreactivity”; “QVQLVESRGGLDQAGGSLRLSCAASGSTFYMYAMGWYRQAPGKERELVASITSGDGSTYYADSVKGRFTISRDNAKNTVYLQMNSLKPEDTAVYYCNAVLEGWFYQYDYWGQGTQVTVSS”: “low polyreactivity”.
Regarding “QVQLVESRGGLFQAGGSLRLSCAASGFIFRDNAMGWYRQAPGKERELVAAISKSGGRTYYADSVKGRFTISRDNAKNTVYLQMNSLKPEDTAVYYCAKVRYQGNGGYYWGQGTQVTVSS”, the “polyreactivity (PSR sort gate)” value is recorded as “high polyreactivity”.
On to “QVQLVESRGGLVQAGGSHRLSCAASGSIIYGNTMGWYRQAPGKERELVAAIRRGGSTNYADSVKGRFTISRDNAKNTVYLQMNSMKPEDTAVYYCAKGHPSDFGYWGQGTQVNVSS”, for which the “polyreactivity (PSR sort gate)” value was “high polyreactivity”.
Consider “QVQLVESRGGLVQAGGSIRLSCAASGRIFVTYAMGWYRQAPGKERELVAVISWSGGSTYYADSVKGRFTISRDNAKNTVYLQMNSLKPEDTAVYYCARGLRKVRFDFWGQGTQVTVSS”, for which the “polyreactivity (PSR sort gate)” value is reported as “low polyreactivity”.
Turning to “QVQLVESRGGLVQAGGSLLLRCAASGSTITRNAMGWYRQAPGKERELVAAITSGGGTNYADSVKGRFTISRDNAKNTVYLQMNSLKPEDTAVYYCADRYWRFYTKRGYWGQGTQVTVSS”, the “polyreactivity (PSR sort gate)” value is on record as “high polyreactivity”.
Next, “QVQLVESRGGLVQAGGSLRLICAASGRIFGRNAMGWYRQAPGKERELVAAISKRGGSTSYADSVKGRFTISRDNAKNTVYLQMNSLKPEDTAVYYCATSAPLVTSSGYGYWGQGTQVTVSS”: “high polyreactivity”.
With “QVQLVESRGGLVQAGGSLRLRCAASGSTFGYYAMGWYRQAPGKERELVAGISSGGTTKYADSVKGRFTISRDNEKNTVYLQMNSLKPEDTAVYYCAATVRVYDYWGQGTQVTLSS” the entry was “high polyreactivity”; with “QVQLVESRGGLVQAGGSLRLSCAASGFIFRYYAMGWYRQEPGKDSELVAAISWSGGSTYYADSVKGRFTISRDNAKNTVYLQMNSLKPEDTAVYYCAADRYAILFYAEDYWGQGTQVTVSS”, “low polyreactivity”; with “QVQLVESRGGLVQAGGSLRLSCAASGFNFPHYAMGWYRQAPGKERELVAAISKSGDSTYYADSVKARFTISRDNAKNTVYLQMNSLKPEDTAVYYCARRGRSVRWKYDYWGQGTQVTVSS”, “low polyreactivity”.
As to “QVQLVESRGGLVQAGGSLRLSCAASGFTFGWYAMGWYRQSPGKERELVAAITSGGSTKYADSVKGRFTISRDNAKNTVYLEMNSLKPEETAVYYCAAKRLGQYRPYTYGYWGQGTQVTVSS”, the “polyreactivity (PSR sort gate)” value is reported as “high polyreactivity”.
In the case of “QVQLVESRGGLVQAGGSLRLSCAASGFTFQRYAMGWYRQAPGKERELVAAINRSGGNTHYADSVKGRFTISRDNAKNTVYLQMNSLKPDDTAVYYCAVGTPASVGHYTYDYWGQGTQVTVSS”, the “polyreactivity (PSR sort gate)” value is “high polyreactivity”.
Take “QVQLVESRGGLVQAGGSLRLSCAASGFTFVYYTMGWYRQAPGKERELVAAINWSGGSTYYADSVKGRFTISRDNAKNTVYLQMNSLKPEDTAVYYCAADTSYYPYEYWGQGTQVTVSS”: the “polyreactivity (PSR sort gate)” value is recorded as “high polyreactivity”.
Consider “QVQLVESRGGLVQAGGSLRLSCAASGGIFINYAMGWYRQAPGKERELVAAISRRGGSTYYADSVKGRFTISRDNAKNTVYLQMNSLKPEDTAVYYCNAVYLRGGMDYWGQGTQVTVSS”, for which the “polyreactivity (PSR sort gate)” value is on record as “high polyreactivity”.
Regarding “QVQLVESRGGLVQAGGSLRLSCAASGIIFSKNAMGWYRQAPGKERELVATINRSGGSTYADSVKGRFTISRDNAKNTVYLQMNSLKPEDTAVYYCAKRASPFWRGYDSCGQGTQVTVSS”, the “polyreactivity (PSR sort gate)” value is reported as “high polyreactivity”.

These data come from the nanobody polyreactivity screen of Harvey et al. (2022).
